# In the DeepSol protein solubility set:
# Assay: soluble on expression in E. coli; label from the status in PepcDB or PDB records
row,Sequence,soluble on expression in E. coli
1,MEVLKLQLRQWQAEKLGEAINALKHGKTLLLNAKPGLGKTVFVEVLGMQLKKKVLIFTRTHSQLDSIYKNAKLLGLKTGFLIGKSASCIYAQGDEEPDEINCSKCRLKDKIKTIEDKEPSKLIEEFKDAVDYCPYYSLRANLKDKDVIAMTYPYLFQKPIRNSVFCNKDDCLKLEDYLIVIDEAHNLLEADKWFTRKISRKMLERALKEIEIVERLNRIDAKKVKDYINLLIDYMSKLIKDGRCHELSLMPLPDRETNGELIVVTRAYLNIDEGPVKKSSLKSLLKFVEMKGDLYNCNGSLVKVPSDVNQLIEDALNVKTFKVLMSGTLPESLTLTNSYKIVVNESYGRGEYYYCPNVTSELRKRNSNIPIYSILLKRIYENSSKSVLVFFPSYEMLESVRIHLSGIPVIEENKKTRHEEVLELMKTGKYLVMLVMRAKESEGVEFREKENLFESLVLAGLPYPNVSDDMVRKRIERLSKLTGKDEDSIIHDLTAIVIKQTIGRAFRDPNDYVKIYLCDSRYREYFADLGISEKEIKLFA,soluble
2,MEVRGMDTIGHHYIVEAAGCDPNVIGDANKIREIFLEAAKRGNMEVKASYFFKFSPMGVSGVVIVAESHISVHTWPEKGYAALDVYTCGENADPEKAVDYILEQFKAQYAHVSEIKRGIEEEDRTFTHTILTWEERLDRRNGKP,soluble
3,MEVTVMPAAAPVQKQQGLNQIVINKVQKMIEGKQQGVMATITRLLEEGKIAQDFIAPIGVNLRNEDRHPVITFQAEEQVQMNMPEGNFNLHGNAISQISEKMGIPAKYLRELSAGDAWQKQLCATILNEHSGWTGRTRVLIRAVGTEIRGVLSDSYRRLNSVDILTAFIREAANNGAVVSDAYMNDTKVWCETILPTPVEIPTRKNGTVIIFAGARFSTSDFGNGSVDMRSFLLNGACLNGMVRESVMRQIHLGGRLPDTLALSQRTYELDTKTTVSAVKDLTKGLYSKNTIMQKAIEIQGASEIDVDFDKELKSLVQRGALLKNEGREVEKLLMNNNPDDGITGGATLWKLAQGITAFAREQEPERSRELHEISGQLMNRVKNN,not soluble
4,MEVVKMPFGVPGWKWKVGKFGYTVENEPNYEEIKAKAKEVLSRTTKGIAWRGHCGSLHIPLVFEGQIIGELWEDADPKEVEIGAYWFGKWGIKVQLVKDGRVIGFIWLA,soluble
5,MEWAMNEHHQPFEEIRHYGTEGQEFWSARELAPLLDYRDWRNFQKVLARATQACEASNQAASDHFVETTKMVVLGSGAQRELEDVHLSRYACYLVVQNGDPAKPVIAAGQTYFAIQTRRQELADDEAFKQLREDEKRLFLRNELKEHNKQLVEAAQQAAVATATDFAIFQNHGYQGLYGGLDQKAIHQLKGLKKSQKILDHMGSTELAANLFRATQTEEKLKRDGVNSKQQANTTHFDVGSKVRQTIQELGGTMPEELPTPQVSIKQLENSVKITEKK,not soluble
6,MEWHFSLKEPHVLLFLPFEKYALPYPDPSQSWLSFGLTEIPVPEWTKNLEIITPWRPDFLKFANAQFRCSPEINQTCTHDGALLQLSKYRGFNQNCFLDLLERVKPGGWIIIGGNKTSGADSMMKWVKKIVPITNKFSKNHGLVFWIQVPQQIEKQNTAQLRSPPLTFENKFQTTSGMFSHGRIDPGSAVLASHMCKTISGKTADFGAGWGFLSHAALERSEKLTALDLYEADYNALKAAKQHLKHITTSLPIHFYWHDLVHEPITNLYDTIISNPPFHTQQTTDVSLGQHFIINAAKYLKPGGNLLLVANRHLPYETLLKRLFRTVLIYEKAHGFKVIEAYR,not soluble
7,MEYAADGDTVFLESIENMEVTRLDSAIIRNGTFSFKGRQDSTVARYLSCMTATDVFSIPFFLENGHIEVKMKSGNESVTGTPTNDIYQEIRSKMAEIMNKMNEIYSDSTLTEELAEEKMDQMEREYTIAQKEAVKKNIANPVGVFLFKEQYFENSLAENQALFRQIPPKYLNDPVLMGMQKQMESQEKTDMNTPFT,not soluble
8,MEYKLHNGSGGLCCKGCSRQDKKLNTYDWLADIPGNAEECDMVEVQFKNTRKGYYRNSNKIKLEKGDIVAVEAAPGHDIGVVTLTGRLVPLQMKKANFKTDVEIKRIYRKAKPVDMEKFNEAKAKEHATMIRARQIALNLNLDMKIGDVEYQGDGNKAIFYYIADERVDFRQLIKVLAEAFRVRIEMKQIGARQEAGRIGGIGPCGRELCCATWMTSFVSVSTSAARFQDISLNPQKLAGQCAKLKCCLNYEVDCYVEAQKRLPSKEIELETKDGTFYFFKADILSNHVSYSTDKNFPANLVTISGKRAFEVIAMNKKGMKPDSLLEAEVKQESKKPIDLLEQESLTRFDRNRNNKDGNNGNRNKKKRKGNNDNRPQAQAESGNRPQQPQRGENENRPQPSENGNRGERGDRENRPRNNNNNNRNRGQNQGRNNENRRPERGQNQERPQNPNRPQNQERSQNQERPVNQERNQERNQERPQNRERQPKQERPQNQERPQEQGRQPNQERIPRPERNSNQEKPQNNEKPAQELEHHHHHH,soluble
9,MEYKPMPYPIIDSHCHLDFPKFNPDREEAIQRARKAGVVGMVNSGISLKGNRISLELAEKNEDIHAALGLSPDIGREGSDKDINAILAQIEANAGKAVAIGEAGLDFQDCKTDEERRRQTASFKKVIELAKNLEKPLVVHARMAEAEVLELARDVDTVIYHCYSGSVETMKEIVDAGYYISLATLVCFSEHHQTLAAEVPPENLLLETDSPFLSPRRGRNEPAFIVDSIPVVAEYKEMEPAEIAKFATENARRVFKILEHHHHHH,not soluble
10,MEYNPFHNGHLYHLTSARELVKPDYTIAVMSGNFCQRGEPAVIDKFARAEIALRMGVDVVLELPVVFATQDAGGFAFGAVCVLDATGVVTDVVFGSESNDIEFLQRVARILYEQPDEYQKFLHEELKKGYSFPNARKYALMRYFSMKGWNEEEVLKLEKSNDILGVEYIHSALKIGSNIRFHTIKRVGAEEKDTSFRGRFSSATAIRNLMREKRWEEVRDSLPEDSFEILMREINEGRGPVFLENMGDFLLSFFRLKNMDFFEKIHGFSEGLEKRFHVCARQTGSYRDFLECVKAKRFTFSRIRRLALFSVFEVNKEFVEKSNTKGPQYIRILGFTEKGREILSLMRKKAKLPIVTNMSLYRKVLEKTDLPVDKQLFLEQIDLDVKATNFYSMFFPSVEQRCGERDFSIHPIFLRTEM,not soluble
11,MEYSNFFDDLKSNIIGQYEECKAYRILCESQGYNPSEHLRSEKDITNIPFLATTLFKKSANLFLSLLRVEPDKLDKWTLSSSTSGDPSMVGRRNSDLMQIRKFVLMDDKFYDSASEYNCVFYPEPKVMREYKSVRIMDKPTESYIGNLLGIFDFSENTTFLLKSCGEGFSVDMNSFEEFLKFNNERNNHLSLRGSTLLLYNAVLELKKQGKGPYNLGSRAIVHTGGGGWDGKKGNISIGTKIERYQFVEEISEFLGIPQKNFRDTYSFTENTFPMDGHYSEKLRSYLFHVPTWGRVIIRDVKTLEPLNKPGDRGLVQVLNAYGTSSFAGASILVDDIAEIVANDSCPECKHEGMTFKIVGRVKGSEAKGCGATLDVRGKQKLEHHHHHH,soluble
12,MFAHQNASFPPRPEGRGGKEAVFRLTVFCIITFSSLICEAMKRAYKYRFYPTTEQAELLAQTFGCVRFVYNSILRWRTDAYYERKEKIGYLQANARLTALKKEPEFAWLNDVSCVPLQQSLRHQQTAFANFFAGRAAYPAFKSKRHKQAAEFTASAFKYRDGKLYMAKNKIPLDVRWSRPLPSVPSTVTISKDAAGRYFVSCLCEFEPASLPITSSMVGIDVGLKDLFVTDTGFRSGNPRHTAKYAARLALLQRRLSKKAKGSKNRAKAHLKVARLHAKIADCRLDALHKATRKLINDNQVVCVESLKVRNMIRNPSLSKAIADASWGELVRQLRYKGEWAGRSVVAIDQFFPSSKRCSCCGFIMKKMPLDVRKWQCPECGTDHDRDVNAARNIKAAGLAVLAHGEPVNPESLKAALEHHHHHH,not soluble
